Stoichiometry N data for 1 substance are collected here from paper PMC7549792.

As a reminder, the stoichiometry N is a count of units in the complex or per binding partner.

The target of the test is Human serum albumin domain I (human). Briefly: SEC; analytical Superdex 75 10/300 calibrated with known proteins; 100 uL of purified DomI at 90 ug/mL; Tris 50 mM, pH 8, 100 mM NaCl; 0.8 mL/min; dimer non-covalent by reducing and non-reducing SDS-PAGE. (In general: SEC sorts molecules by how far they enter the pores of the column.)

“Human serum albumin domain I (domain or fragment)” gave a stoichiometry N of 2.
